Measured values as given in US20120324600A1, “CONSTITUTIVE SYNTHETIC PLANT PROMOTERS AND METHODS OF USE” (SYNGENTA PARTICIPATIONS AG, priority 2010, published 2012).

How the values were obtained:
Assay type in all cases: in vivo
[1] = test system: transgenic soybean events; experiment: tolerance to mesotrione herbicide spray of T1 transgenic soybean seedlings; conditions: sprayed at V2 stage, rated approximately 10 days post-application
From the text: (§1) The first generation transgenic soybean events (T1) harboring SEQ ID NO: 3, SEQ ID NO: 4, SEQ ID NO: 5, SEQ ID NO: 6, or SEQ ID NO: 7 were characterized for segregation analysis, oat HPPD protein expression and tolerance to mesotrione herbicide spray. The green leaf tissues from the first trifoliate of five independent events were sampled to determine the segregation ratios (homozygous, heterozygous or null) of the individual seedlings as determined by zygosity Taqman® assays and oat HPPD protein expression by ELISA. At the V2 stage, the seedlings were sprayed with the HPPD inhibiting herbicide mesotrione and tolerance rating determined approximately 10 days post-application.

maize = experiment: expression of a heterologous sequence in maize
From the text: A similar strategy for building synthetic plant promoters for use in maize was implemented.

[2] = test system: oat HPPD protein expression; experiment: oat HPPD protein expression by ELISA in T1 transgenic soybean events; conditions: inferred from ELISA and mesotrione tolerance of HOM vs HET siblings
From the text: To express a synthetic oat (Avena sativa) 4-hydroxyphenylpyruvate dioxygenase (cAvHPPD) in stably transformed soybean, viral transcriptional and translational enhancers, and a minimal promoter were created by PCR or direct DNA synthesis and combined by standard DNA restriction digestion and ligation reactions. A synthetic plant promoter comprising defined components eFMV (SEQ ID NO: 1), eTMV (SEQ ID NO: 2), the Cauliflower Mosaic Virus 35S enhancer region (e35S) and a minimal promoter (pr35SCMP: Cestrum Yellow Leaf Curl virus TATA-box motif; no CAAT 35S-proximal promoter sequence) were combined to create SEQ ID NO: 3. Subsequently, SEQ ID NO: 3 was modified by digestion with a DNA restriction enzyme XhoI to remove defined components e35S, pr35SCMP (including the TATA-box motif) followed by a standard ligation reaction to create SEQ ID NO: 4. […] One skilled in the art would readily recognize other subelements which would be suitable to use.
The plasmids containing the synthetic plant promoter expression cassettes were transformed into soybean using Agrobacterium tumefaciens. […] Expression of cAvHPPD of surviving T0 plants was quantified by ELISA (Engvall E, Perlman P (1971). “Enzyme-linked immunosorbent assay (ELISA). Quantitative assay of immunoglobulin G”. Immunochemistry 8(9):871-874).
as §1

Molecule	tolerance to mesotrione herbicide spray [1]	promotion of expression of a heterologous sequence in maize (maize)	transgene silencing in HOM plants [2]
SEQ ID NO: 3: synthetic plant promoter, subelements eFMV, e35S, pr35SCMP, eTMV; 625 bp (nucleic acid, synthetic plant promoter, synthetic plant promoter, subelements eFMV, e35S, pr35SCMP, eTMV; 625 bp) DNA: AGCTGCTTGTGGGGACCAGACAAAAAAGGAATGGTGCAGAATTGTTAGGCGCACCTACCAAAAGCATCTTTGCCTTTATTGCAAAGATAAAGCAGATTCCTCTAGTACAAGTGGGGAACAAAATAACGTGGAAAAGAGCTGTCCTGACAGCCCACTCACTAATGCGTATGACGAACGCAGTGACGACCACAAAACTCGAGACTTTTCAACAAAGGGTAATATCCGGAAACCTCCTCGGATTCCATTGCCCAGCTATCTGTCACTTTATTGTGAAGATAGTGGAAAAGGAAGGTGGCTCCTACAAATGCCATCATTGCGATAAAGGAAAGGCTATCGTTGAAGATGCCTCTGCCGACAGTGGTCCCAAAGATGGACCCCCACCCACGAGGAGCATCGTGGAAAAAGAAGACGTTCCAACCACGTCTTCAAAGCAAGTGGATTGATGTGATATCTCCACTGACGTAAGGGATGACGAACAATCCCACTATCCTTCTGCAGGTCGACTCTAGAGGATCCTATAAATAGGAAGTTCATTTCATTTGGAGAGGAAACCTCGAGTATTTTTACAACAATTACCAACAACAACAAACAACAAACAACATTACAATTACTATTTACAATTACA	significant initial damage to the homozygous (HOM) compared to the heterozygous (HET) siblings	successfully used to promote the expression of a heterologous sequence in maize	indicative of transgene silencing
SEQ ID NO: 5: synthetic plant promoter, subelements eFMV, e35S, iUBQ3, pr35SCMP, eTMV; 1017 bp (nucleic acid, synthetic plant promoter, synthetic plant promoter, subelements eFMV, e35S, iUBQ3, pr35SCMP, eTMV; 1017 bp) DNA: AGCTGCTTGTGGGGACCAGACAAAAAAGGAATGGTGCAGAATTGTTAGGCGCACCTACCAAAAGCATCTTTGCCTTTATTGCAAAGATAAAGCAGATTCCTCTAGTACAAGTGGGGAACAAAATAACGTGGAAAAGAGCTGTCCTGACAGCCCACTCACTAATGCGTATGACGAACGCAGTGACGACCACAAAACTCGAGACTTTTCAACAAAGGGTAATATCCGGAAACCTCCTCGGATTCCATTGCCCAGCTATCTGTCACTTTATTGTGAAGATAGTGGAAAAGGAAGGTGGCTCCTACAAATGCCATCATTGCGATAAAGGAAAGGCTATCGTTGAAGATGCCTCTGCCGACAGTGGTCCCAAAGATGGACCCCCACCCACGAGGAGCATCGTGGAAAAAGAAGACGTTCCAACCACGTCTTCAAAGCAAGTGGATTGATGTGATATCTCCACTGACGTAAGGGATGACGAACAATCCCACTATCCTTCTGCAGGTCGACTCTAGAGGATCTTATAAATAGGTATATTTTCTGATTCTTTTTGTTTTTGATTCGTATCTGATCTCCAATTTTTGTTATGTGGATTATTGAATCTTTTGTATAAATTGCTTTTGACAATATTGTTCGTTTCGTCAATCCAGCTTCTAAATTTTGTCCTGATTACTAAGATATCGATTCGTAGTGTTTACATCTGTGTAATTTCTTGCTTGATTGTGAAATTAGGATTTTCAAGGACGATCTATTCAATTTTTGTGTTTTCTTTGTTCGATTCTCTCTGTTTTAGGTTTCTTATGTTTAGATCCGTTTCTCTTTGGTGTTGTTTTGATTTCTCTTACGGCTTTTGATTTGGTATATGTTCGCTGATTGGTTTCTACTTGTTCTATTGTTTTATTTCAGGTGGATCCTATAAATAGGAAGTTCATTTCATTTGGAGAGGAAACCTCGAGTATTTTTACAACAATTACCAACAACAACAAACAACAAACAACATTACAATTACTATTTACAATTACA	improved tolerance to the HPPD inhibitor herbicide mesotrione		relieve transgene silencing
SEQ ID NO: 4: synthetic plant promoter, subelements eFMV, eTMV; 267 bp (nucleic acid, synthetic plant promoter, synthetic plant promoter, subelements eFMV, eTMV; 267 bp) DNA: AGCTGCTTGTGGGGACCAGACAAAAAAGGAATGGTGCAGAATTGTTAGGCGCACCTACCAAAAGCATCTTTGCCTTTATTGCAAAGATAAAGCAGATTCCTCTAGTACAAGTGGGGAACAAAATAACGTGGAAAAGAGCTGTCCTGACAGCCCACTCACTAATGCGTATGACGAACGCAGTGACGACCACAAAACTCGAGTATTTTTACAACAATTACCAACAACAACAAACAACAAACAACATTACAATTACTATTTACAATTACA	improved tolerance to the HPPD inhibitor herbicide mesotrione		relieve transgene silencing
